Source: patent publication US20160264634A1

How the values were obtained:
mKv1.3 channel (mouse) = mKv1.3 channel (mouse) (UniProt P16390); test: cell-based or functional assay
mKv1.1 channel (mouse) = mKv1.1 channel (mouse) (UniProt P16388); test: cell-based or functional assay
Chain of mKv1.1 channel (mouse) (P16388 whole entry): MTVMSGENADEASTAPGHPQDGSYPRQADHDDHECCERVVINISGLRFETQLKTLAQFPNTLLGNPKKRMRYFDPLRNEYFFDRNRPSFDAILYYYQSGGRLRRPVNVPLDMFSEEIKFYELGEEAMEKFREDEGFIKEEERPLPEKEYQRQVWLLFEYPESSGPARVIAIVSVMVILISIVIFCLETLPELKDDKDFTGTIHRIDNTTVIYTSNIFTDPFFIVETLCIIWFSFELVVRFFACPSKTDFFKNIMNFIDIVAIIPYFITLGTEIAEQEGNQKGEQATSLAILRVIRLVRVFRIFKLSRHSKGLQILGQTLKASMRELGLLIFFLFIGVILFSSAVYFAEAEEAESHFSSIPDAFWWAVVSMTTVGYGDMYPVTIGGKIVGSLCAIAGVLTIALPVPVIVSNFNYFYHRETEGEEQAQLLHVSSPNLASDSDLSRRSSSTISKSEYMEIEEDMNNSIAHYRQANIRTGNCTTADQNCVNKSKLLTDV

Chain of mKv1.3 channel (mouse) (P16390 whole entry): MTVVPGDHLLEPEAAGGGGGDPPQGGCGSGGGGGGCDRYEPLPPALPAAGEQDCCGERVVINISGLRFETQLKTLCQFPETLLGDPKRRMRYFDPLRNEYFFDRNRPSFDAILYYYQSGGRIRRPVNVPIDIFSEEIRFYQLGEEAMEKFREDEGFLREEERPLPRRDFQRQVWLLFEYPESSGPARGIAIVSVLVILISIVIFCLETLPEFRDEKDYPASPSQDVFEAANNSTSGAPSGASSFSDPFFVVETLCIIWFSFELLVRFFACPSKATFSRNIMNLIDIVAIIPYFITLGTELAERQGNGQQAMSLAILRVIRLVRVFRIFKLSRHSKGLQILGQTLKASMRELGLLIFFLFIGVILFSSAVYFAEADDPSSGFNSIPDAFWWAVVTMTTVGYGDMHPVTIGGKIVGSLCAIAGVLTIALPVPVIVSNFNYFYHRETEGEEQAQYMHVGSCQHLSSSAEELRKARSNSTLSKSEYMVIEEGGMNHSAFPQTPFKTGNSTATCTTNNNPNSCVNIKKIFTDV
Chain of ShK (P29187 whole entry): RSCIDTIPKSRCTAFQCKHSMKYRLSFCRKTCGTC
Chain of ShK-K-amide (P29187 whole entry): as above

| Substance | IC50 of current block, whole-cell patch-clamp (mKv1.3 channel (mouse)) [nM] | IC50 of current block, whole-cell patch-clamp (mKv1.1 channel (mouse)) [nM] |
| --- | --- | --- |
| ShK-amide (from UniProt P29187 1-35) (peptide) | 0.035 | 0.037 |
| ShK (from UniProt P29187 1-35) (peptide) | 0.009 | 0.023 |
| ShK-K-amide (from UniProt P29187 1-35) (peptide) | 0.026 | – |
